Laboratory results published in article PMC6208443, “Arabidopsis AGDP1 links H3K9me2 to DNA methylation in heterochromatin” (Nature Communications, 2018).

Assays:
[1] = molecular target: full-length AtAGDP1 (Arabidopsis thaliana) (UniProt Q500V5); experiment: ITC; Microcal PEAQ-ITC, 25 °C; protein at 0.1 mM, peptide at 1.0–1.5 mM in the same buffer; fit with Origin 7.0
[2] = molecular target: RsAGDP1 AGD12 (residues 26–180) (Raphanus sativus); experiment: as above

full-length AtAGDP1 (Arabidopsis thaliana), sequence (Q500V5 whole entry, the tested form may be a part): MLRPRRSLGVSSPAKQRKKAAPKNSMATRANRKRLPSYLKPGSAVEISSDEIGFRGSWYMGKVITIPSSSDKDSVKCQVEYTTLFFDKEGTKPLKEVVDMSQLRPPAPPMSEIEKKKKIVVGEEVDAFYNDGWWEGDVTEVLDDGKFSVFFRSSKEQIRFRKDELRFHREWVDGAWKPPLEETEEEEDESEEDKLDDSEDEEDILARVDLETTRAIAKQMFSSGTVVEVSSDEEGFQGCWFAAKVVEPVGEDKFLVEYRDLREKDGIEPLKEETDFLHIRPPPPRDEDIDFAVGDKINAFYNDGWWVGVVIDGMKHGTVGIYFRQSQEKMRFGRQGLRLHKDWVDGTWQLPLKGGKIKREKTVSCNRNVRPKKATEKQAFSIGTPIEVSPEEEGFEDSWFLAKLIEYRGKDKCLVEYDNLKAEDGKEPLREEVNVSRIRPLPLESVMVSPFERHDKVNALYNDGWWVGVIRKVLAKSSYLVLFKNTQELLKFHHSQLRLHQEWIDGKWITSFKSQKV

With H3K9me2 peptide (ITC) the stoichiometry N [1] was 3.

Work on H3K4me3K9me2 peptide yielded a fold decrease of binding against H3K9me2 [2] of 5 fold.
